Data: publication PMC5651854, “Reconstitution of human shelterin complexes reveals unexpected stoichiometry and dual pathways to enhance telomerase processivity” (Nature Communications, 2017)

T1: ybbR-tagged human TIN2 (human, UniProt Q9BSI4-2 1-354, Cy3 (from CoA-Cy3, by Sfp phosphopantetheinyl transferase) on the ybbR tag)
T1 construct: The methods put the ybbR tag at the C-terminus of TIN2; the results speak of an N-terminal tag on each protein; also called TIN2 (ybbR tag); source: Tni insect cells (baculovirus), co-expressed, purified as complex, labelled with CoA-Cy3 by Sfp; not shown: His6, N-terminal, cleaved; MBP, N-terminal, cleaved
T1 sequence (looked up): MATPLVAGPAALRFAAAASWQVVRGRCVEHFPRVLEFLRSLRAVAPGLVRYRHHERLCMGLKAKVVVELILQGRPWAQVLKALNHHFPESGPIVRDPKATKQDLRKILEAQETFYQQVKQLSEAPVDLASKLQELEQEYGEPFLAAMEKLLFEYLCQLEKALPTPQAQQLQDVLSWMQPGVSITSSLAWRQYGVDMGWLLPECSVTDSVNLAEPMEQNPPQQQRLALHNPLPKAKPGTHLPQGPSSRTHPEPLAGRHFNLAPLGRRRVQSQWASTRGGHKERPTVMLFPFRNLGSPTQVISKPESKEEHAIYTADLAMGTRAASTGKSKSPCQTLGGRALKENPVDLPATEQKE


How the values were obtained:
ybbR-tagged human TIN2 = biological target: T1, ybbR-tagged human TIN2; experiment: fluorescence intensity of Cy3-labelled ybbR-tagged subunits on SDS-PAGE; purified complexes (5 µM) with one ybbR tag on each subunit labelled with CoA-Cy3 (10 µM) by Sfp (1 µM), 50 mM HEPES pH 7.5, 300 mM KCl, 10 mM MgCl2, 1 mM TCEP, overnight at 4 °C; band intensities normalised to TPP1; conditions: both partners purified
TRF2 = TRF2 (Homo sapiens, UniProt A0ACI8RU48 1-541); experiment: EMSA (agarose); 500 nM protein; some smearing; Agarose EMSA: 50 mM Tris-HCl pH 8.0, 150 mM KCl, 2 mM MgCl2, 1 mM DTT, 10% glycerol, 0.5 mg/ml BSA, 0.02 mg/ml carrier dsDNA, 30 min 23 C (gel at 4 C); FP: same buffer without carrier DNA, 23 C; conditions: protein: recombinant; tags: 6xHis N-term; chain copies: 2; label: 5'-32P on long strand (EMSA); 3' overhang 13 nt

Binder	stoichiometry N (ybbR-tagged human TIN2) [TRF2 per TIN2]	binding result (TRF2)
ybbR-tagged human TRF2 (natural protein, UniProt Q15554 1-542, looked up, Cy3 (from CoA-Cy3, by Sfp phosphopantetheinyl transferase) on the ybbR tag, also called TRF2 (ybbR tag); source: Tni insect cells (baculovirus), co-expressed, purified as complex, labelled with CoA-Cy3 by Sfp) MAAGAGTAGPASGPGVVRDPAASQPRKRPGREGGEGARRSDTMAGGGGSSDGSGRAAGRRASRSSGRARRGRHEPGLGGPAERGAGEARLEEAVNRWVLKFYFHEALRAFRGSRYGDFRQIRDIMQALLVRPLGKEHTVSRLLRVMQCLSRIEEGENLDCSFDMEAELTPLESAINVLEMIKTEFTLTEAVVESSRKLVKEAAVIICIKNKEFEKASKILKKHMSKDPTTQKLRNDLLNIIREKNLAHPVIQNFSYETFQQKMLRFLESHLDDAEPYLLTMAKKALKSESAASSTGKEDKQPAPGPVEKPPREPARQLRNPPTTIGMMTLKAAFKTLSGAQDSEAAFAKLDQKDLVLPTQALPASPALKNKRPRKDENESSAPADGEGGSELQPKNKRMTISRLVLEEDSQSTEPSAGLNSSQEAASAPPSKPTVLNQPLPGEKNPKVPKGKWNSSNGVEEKETWVEEDELFQVQAAPDEDSTTNITKKQKWTVEESEWVKAGVQKYGEGNWAAISKNYPFVNRTAVMIKDRWRTMKRLGMN	2	
C8 (mixed) DNA 1: GACCATGCTTAGGGTTAGGGTTATCATACAAGTTAGGGTTAGGG DNA 2: TTGTATGATAACCCTAACCCTAAGCATGGTC		binds
